Results reported in PMC4333418, “Transcriptional regulator-mediated activation of adaptation genes triggers CRISPR de novo spacer acquisition”.

Tests used:
[1] = target: T1, Csa3a (Sulfolobus islandicus REY15A) (UniProt F0NH46); assay: EMSA; conditions: EMSA: 20 mM Tris-HCl pH 8.0, 50 mM KCl, 5% glycerol, 1 mM EDTA, 1 mM DTT, 5 ng/ul poly(dI-dC), 10 pmol probe in 20 ul, 40 C 20 min; footprinting: 10 mM …
T1 sequence: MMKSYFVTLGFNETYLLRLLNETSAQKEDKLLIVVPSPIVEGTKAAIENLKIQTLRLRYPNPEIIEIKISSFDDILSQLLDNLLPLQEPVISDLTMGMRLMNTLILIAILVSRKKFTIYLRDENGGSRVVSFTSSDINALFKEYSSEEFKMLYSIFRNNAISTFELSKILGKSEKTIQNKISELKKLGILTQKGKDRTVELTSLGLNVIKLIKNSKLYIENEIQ

Csa3a [2] = target: T2, Csa3a (Sulfolobus islandicus REY15A, UniProt F0NH46 1-224); assay: EMSA; Csa3a 1.6 pmol/ul; EMSA: 20 mM Tris-HCl pH 8.0, 50 mM KCl, 5% glycerol, 1 mM EDTA, 1 mM DTT, 5 ng/ul poly(dI-dC), 10 pmol probe in 20 ul, 40 C 20 min; footprinting: 10 mM Tris-HCl pH 7.4, 10 mM MgCl2, 1 mM CaCl2, 0.4 mM DTT, 100 mM KCl, 5% glycerol, 40 C 20 min; conditions: protein: recombinant; chain copies: 2; label: 5' biotin (one strand); blunt
T2 sequence: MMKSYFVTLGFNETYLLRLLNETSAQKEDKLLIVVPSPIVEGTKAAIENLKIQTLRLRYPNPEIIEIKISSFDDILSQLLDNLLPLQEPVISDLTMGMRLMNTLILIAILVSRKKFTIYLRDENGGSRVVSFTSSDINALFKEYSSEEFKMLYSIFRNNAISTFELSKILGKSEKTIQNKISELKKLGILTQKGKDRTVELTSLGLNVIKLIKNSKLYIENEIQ

Csa3a [3] = target: T2, Csa3a; assay: EMSA; Csa3a 0.4-1.6 pmol/ul; EMSA: 20 mM Tris-HCl pH 8.0, 50 mM KCl, 5% glycerol, 1 mM EDTA, 1 mM DTT, 5 ng/ul poly(dI-dC), 10 pmol probe in 20 ul, 40 C 20 min; footprinting: 10 mM Tris-HCl pH 7.4, 10 mM MgCl2, 1 mM CaCl2, 0.4 mM DTT, 100 mM KCl, 5% glycerol, 40 C 20 min; conditions: protein: recombinant; chain copies: 2; label: 5' biotin
Csa3a [4] = target: T2, Csa3a; assay: EMSA; Csa3a 2.4-6 pmol/ul; EMSA: 20 mM Tris-HCl pH 8.0, 50 mM KCl, 5% glycerol, 1 mM EDTA, 1 mM DTT, 5 ng/ul poly(dI-dC), 10 pmol probe in 20 ul, 40 C 20 min; footprinting: 10 mM Tris-HCl pH 7.4, 10 mM MgCl2, 1 mM CaCl2, 0.4 mM DTT, 100 mM KCl, 5% glycerol, 40 C 20 min; conditions: protein: recombinant; chain copies: 2; label: 5' biotin (one strand); blunt

GCAAAAAGAATCTAAAATACACAATAATGATCCTTGTAAATTTCTTCCCGACTTTAGTAAGGATAATCTTAATAAACGACGATTTTCCTCTTGATGAAGAATAATGGAAAATATAGGGAAAGTGTTCTCCCGTATACGATCCTTGTTTTCCTTTTTCCTTGTTTCGTTTTGGGTTAGGTTGTTATCCTAAATTCATTATCTT (double strand) [csa1 promoter P1 (-205 to -4)]
binding [1]: binds

TATATTTTCCATTATTCTTCATCAAGAGGAAAATCGTCGTTTATTAAGATTATCCTTACTAAAGTCGGGAAGAAATTTACAAGGATCATTATTGTGTATTTTAGATTCTTTTTGC (double strand) [csa1 promoter P2 (-118 to -4)]
binding [1]: binds

B1: csa1 promoter P3 (-42 to -4) (dsDNA)
DNA 1: TTACAAGGATCATTATTGTGTATTTTAGATTCTTTTTGC
DNA 2: GCAAAAAGAATCTAAAATACACAATAATGATCCTTGTAA
binding result (Csa3a [2]): no binding

B2: csa1 25-bp minimal region (dsDNA)
DNA 1: ATCCTTACTAAAGTCGGGAAGAAATT
DNA 2: AATTTCTTCCCGACTTTAGTAAGGAT
binding result (Csa3a [3]): binds

B3: cas1 P2 (-35 to -10) (dsDNA)
DNA 1: TTAAGACCTTAATAATATCGGAATAT
DNA 2: ATATTCCGATATTATTAAGGTCTTAA
binding result (Csa3a [4]): no binding
